In the supplement of paper PMC9732359:
± gives the uncertainty stated by the source.

Assay: protein stability index of a GFP-peptide fusion (yeast GPS) (PSI 1-4); higher = more stable; sorted into four equal gates, so the index is relative within each strain
How it was run: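 The protein stability index of a peptide was calculated by multiplying its read frequency in each gate by that gate's number and adding the products. The peptides were tiled 17-residue stretches of yeast proteins, fused downstream of GFP on a Cherry-expressing plasmid and carried in yeast as a pooled library. Mid-log cultures in leucine-free medium were sorted into four equal gates by GFP/Cherry ratio, and each gate's plasmids were PCR-amplified and Illumina-sequenced.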

Sequence | protein stability index (doa10∆) | protein stability index (pdr5∆) | protein stability index (san1∆) | protein stability index (ubr1∆)
NEKIEKRSDLTGANSIY [UBP6] | 2.75 ± 0.086 | 3.01 ± 0.062 | 3.06 ± 0.075 | 3.15 ± 0.068
NEKSQAEQEKAKNIISN [LRP1] | 2.59 ± 0.092 | 2.83 ± 0.12 | 2.86 ± 0.078 | 2.62 ± 0.17
NELERNRKIYQFTLYDR [SMC3] | 1.5 ± 0.23 | 2.45 ± 0.1 | 2.31 ± 0.14 | 2.88 ± 0.1
NELPDIEALYDDDTFSD [RPN2] | 3.12 ± 0.1 | 3.35 ± 0.13 | 3.23 ± 0.12 | 2.98 ± 0.081
NENDKIYLLFQSSGKLK [YDL116W/NUP84] | 2.43 ± 0.049 | 2.5 ± 0.049 | 2.44 ± 0.048 | 2.72 ± 0.034
NENDLKTYNCLHEKYLT [SMC1] | 2.2 ± 0.072 | 2.68 ± 0.053 | 2.11 ± 0.083 | 3.02 ± 0.056
NENPYNNGVSNLWKNIF [COR1] |  | 1.96 ± 0.12 | 2.01 ± 0.15 | 1.86 ± 0.07
NEPLSEIEIEGVMSLLQ [YAR002W/NUP60] | 3.31 ± 0.093 | 3.32 ± 0.14 | 3.22 ± 0.11 | 3.19 ± 0.094
NEPSQSLISTRNDSTVN [BRN1] | 3.16 ± 0.07 | 3.17 ± 0.086 | 3.08 ± 0.071 | 2.82 ± 0.045
NESKIKELNEKIQKLEE [RPN7] | 2.95 ± 0.16 | 2.48 ± 0.11 | 2.26 ± 0.14 | 2.09 ± 0.14
NESWKSSFEKFNDSQAI [SRP72] | 2.96 ± 0.055 | 2.96 ± 0.059 | 2.79 ± 0.043 | 3.02 ± 0.037
NEVKEWAVTLDTSRPDL [DSN1] | 2.96 ± 0.11 | 3.15 ± 0.091 | 3.02 ± 0.052 | 3.15 ± 0.041
NEYVAKVSAREKSAYKF [FAS2] | 3.23 ± 0.082 | 3.16 ± 0.073 | 3.04 ± 0.093 | 3.32 ± 0.061
NFLVFQGDVEQIAAQSP [SMC1] | 2.49 ± 0.1 | 2.51 ± 0.092 | 2.68 ± 0.14 | 2.61 ± 0.094
NFNDIPPSVTLQDWQRE [YDL088C/ASM4] | 2.51 ± 0.078 | 2.31 ± 0.054 | 2.44 ± 0.077 | 3.09 ± 0.053
NFNLKPTKTLTTKERKK [PRP8] | 1.98 ± 0.049 | 2.54 ± 0.074 | 2.19 ± 0.075 | 2.12 ± 0.041
NFNSSAPIADDNHSGDA [DSN1] | 1.92 ± 0.081 | 2.8 ± 0.1 | 2.45 ± 0.09 | 2.68 ± 0.067
NFNSSLHKRQQFSESTH [YJL039C/NUP192] | 3.12 ± 0.12 | 3.14 ± 0.08 | 2.82 ± 0.063 | 3.03 ± 0.061
NFSNVTDLTNNSTDGAK [YIL149C/MLP2] | 2.82 ± 0.041 | 3.15 ± 0.046 | 3.41 ± 0.035 | 2.85 ± 0.034
NGKEVPLAKIYLEENKS [MED1] | 3.2 ± 0.1 | 3.27 ± 0.071 | 3.12 ± 0.075 | 3.21 ± 0.063

Sequence | protein stability index (doa10∆) | protein stability index (pdr5∆) | protein stability index (san1∆) | protein stability index (ubr1∆)
NGKTRTLENTLKAAFVA [RPS2] | 2.85 ± 0.11 | 2.8 ± 0.14 | 3 ± 0.089 | 2.67 ± 0.085
NGNITYSEEPREKVRKL [FAS2] | 2.99 ± 0.17 | 3.54 ± 0.18 | 3.3 ± 0.2 | 3.53 ± 0.18
NGQRSNSIRAREVENSV [SMC1] | 3.31 ± 0.075 | 3.37 ± 0.058 | 3.36 ± 0.048 | 3.19 ± 0.072
NGQSLSPVRSDSADVPA [YMR153W/NUP53] | 3.06 ± 0.081 | 3.15 ± 0.081 | 3.09 ± 0.11 | 2.91 ± 0.05
NGTTVWGTLQSVSPQMN [SMD1] | 3.57 ± 0.25 | 3.01 ± 0.24 | 3.39 ± 0.19 | 2.96 ± 0.18
NGVPGQALDAVRMRLAQ [MED8] | 1.38 ± 0.067 | 1.39 ± 0.063 | 1.25 ± 0.1 | 1.26 ± 0.047
NHITEFPSIPLPINGPI [RPC31] | 2.06 ± 0.05 | 2.24 ± 0.048 | 2.08 ± 0.07 | 1.94 ± 0.051
NIDINNEDENIQLIKIL [YJL041W/NSP1] | 2.52 ± 0.055 | 2.56 ± 0.071 | 2.99 ± 0.049 | 2.7 ± 0.042
NIDQEGSKQADRMAKYL [PGD1] | 3.4 ± 0.094 | 3.35 ± 0.13 | 2.97 ± 0.087 | 3.17 ± 0.15
NIEERKEKIQHELGINI [BRR2] | 3.02 ± 0.094 | 3.34 ± 0.075 | 3.52 ± 0.075 | 3.22 ± 0.1
NIIASPLSAGFNYGKLP [SIN4] | 2.62 ± 0.079 | 2.72 ± 0.086 | 2.68 ± 0.048 | 2.54 ± 0.076
NILSNKPGQNNRQQKKR [RRP6] | 2.73 ± 0.18 | 3.06 ± 0.13 |  | 
NINSTDKSIDTSSLQLY [YML103C/NUP188] | 2.98 ± 0.099 | 2.67 ± 0.14 | 3.11 ± 0.049 | 3.25 ± 0.07
NIPFWKHVGFELLSMGN [SRP72] | 1.82 ± 0.1 | 1.58 ± 0.085 | 2.01 ± 0.16 | 1.27 ± 0.079
NIPQQQQMQPPNSSANN [GAL11] | 2.82 ± 0.062 | 2.9 ± 0.062 | 2.85 ± 0.048 | 2.75 ± 0.041
NIRNNIESQNLDLIPHS [SRB4] | 2.62 ± 0.052 | 2.92 ± 0.046 | 2.62 ± 0.05 | 2.7 ± 0.029
NITFSEELVSLAVFLFD [YJL039C/NUP192] |  |  | 1.62 ± 0.28 | 1.66 ± 0.29
NITKNLKTFNGSLALLK [POP4] |  | 3.19 ± 0.15 | 2.93 ± 0.082 | 3.13 ± 0.1
NIVQVFKKAAPSPISHV [RPB2] | 2.2 ± 0.11 | 2.33 ± 0.071 | 2.16 ± 0.075 | 2.09 ± 0.043
